From publication PMC4711005, “LRRK2 phosphorylates pre-synaptic N-ethylmaleimide sensitive fusion (NSF) protein enhancing its ATPase activity and SNARE complex disassembling rate” (Molecular Neurodegeneration, 2016)

Molecular target: the molecule itself
Assay: negative-stain transmission electron microscopy; purified NSF incubated with 1 mM ATP and 2 mM MgCl2, adsorbed to carbon-coated grids, stained with 1 % uranyl acetate

Row | Protein | stoichiometry N
1 | Flag-NSF full-length (human, aa 1-744) (enzyme, UniProt P46459 1-744, looked up, N-ethylmaleimide sensitive fusion protein (NSF), human, full-length, aa 1-744; Cloned into the p3XFLAG-CMV-7.1 vector; also called 3xFlag-NSF wt; NSF wild-type; source: kept on the resin or eluted with 3xFlag peptide; also in HEK293T lysate; not shown: Flag, N-terminal, kept) MAGRSMQAARCPTDELSLTNCAVVNEKDFQSGQHVIVRTSPNHRYTFTLKTHPSVVPGSIAFSLPQRKWAGLSIGQEIEVSLYTFDKAKQCIGTMTIEIDFLQKKSIDSNPYDTDKMAAEFIQQFNNQAFSVGQQLVFSFNEKLFGLLVKDIEAMDPSILKGEPATGKRQKIEVGLVVGNSQVAFEKAENSSLNLIGKAKTKENRQSIINPDWNFEKMGIGGLDKEFSDIFRRAFASRVFPPEIVEQMGCKHVKGILLYGPPGCGKTLLARQIGKMLNAREPKVVNGPEILNKYVGESEANIRKLFADAEEEQRRLGANSGLHIIIFDEIDAICKQRGSMAGSTGVHDTVVNQLLSKIDGVEQLNNILVIGMTNRPDLIDEALLRPGRLEVKMEIGLPDEKGRLQILHIHTARMRGHQLLSADVDIKELAVETKNFSGAELEGLVRAAQSTAMNRHIKASTKVEVDMEKAESLQVTRGDFLASLENDIKPAFGTNQEDYASYIMNGIIKWGDPVTRVLDDGELLVQQTKNSDRTPLVSVLLEGPPHSGKTALAAKIAEESNFPFIKICSPDKMIGFSETAKCQAMKKIFDDAYKSQLSCVVVDDIERLLDYVPIGPRFSNLVLQALLVLLKKAPPQGRKLLIIGTTSRKDVLQEMEMLNAFSTTIHVPNIATGEQLLEALELLGNFKDKERTTIAQQVKGKKVWIGIKKLLMLIEMSLQMDPEYRVRKFLALLREEGASPLDFD | 6
2 | NSF T645A (enzyme, human, UniProt P46459 1-744, looked up, NSF, human, phospho-deficient mutant T645A of the NSF wild-type construct (full-length aa 1-744), made by QuickChange mutagenesis; source: HEK293T, expressed and purified) MAGRSMQAARCPTDELSLTNCAVVNEKDFQSGQHVIVRTSPNHRYTFTLKTHPSVVPGSIAFSLPQRKWAGLSIGQEIEVSLYTFDKAKQCIGTMTIEIDFLQKKSIDSNPYDTDKMAAEFIQQFNNQAFSVGQQLVFSFNEKLFGLLVKDIEAMDPSILKGEPATGKRQKIEVGLVVGNSQVAFEKAENSSLNLIGKAKTKENRQSIINPDWNFEKMGIGGLDKEFSDIFRRAFASRVFPPEIVEQMGCKHVKGILLYGPPGCGKTLLARQIGKMLNAREPKVVNGPEILNKYVGESEANIRKLFADAEEEQRRLGANSGLHIIIFDEIDAICKQRGSMAGSTGVHDTVVNQLLSKIDGVEQLNNILVIGMTNRPDLIDEALLRPGRLEVKMEIGLPDEKGRLQILHIHTARMRGHQLLSADVDIKELAVETKNFSGAELEGLVRAAQSTAMNRHIKASTKVEVDMEKAESLQVTRGDFLASLENDIKPAFGTNQEDYASYIMNGIIKWGDPVTRVLDDGELLVQQTKNSDRTPLVSVLLEGPPHSGKTALAAKIAEESNFPFIKICSPDKMIGFSETAKCQAMKKIFDDAYKSQLSCVVVDDIERLLDYVPIGPRFSNLVLQALLVLLKKAPPQGRKLLIIGATSRKDVLQEMEMLNAFSTTIHVPNIATGEQLLEALELLGNFKDKERTTIAQQVKGKKVWIGIKKLLMLIEMSLQMDPEYRVRKFLALLREEGASPLDFD | 6
